In publication PMC7532178, “Interaction of protocadherin-15 with the scaffold protein whirlin supports its anchoring of hair-bundle lateral links in cochlear hair cells” (Scientific Reports, 2020) one finds Kd data, which are given here for three molecules.

Experiment [1] deals with T1, whirlin-HHD1 (aa residues 30-121) (mouse, UniProt Q80VW5-1 30-121).
T1 construct: extra 7 aa at the N-terminus of all recombinant proteins of the study; whirlin, residues 30-121: harmonin-homology domain 1 (HHD1); also called HHD1 domain alone; source: E. coli BL21 (DE3) codonPlus-RIPL, purified (Glutathione Sepharose 4B, GST removed by TEV proteinase, SEC)
T1 sequence: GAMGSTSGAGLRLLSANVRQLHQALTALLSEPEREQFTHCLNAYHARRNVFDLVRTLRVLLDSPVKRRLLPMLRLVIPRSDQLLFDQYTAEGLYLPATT
Briefly: SPR; ProteOn XPR 36; N-terminally biotinylated peptides captured on a Neutravidin NLC sensor chip, whirlin fragments flowed as analytes at 20 μL/min for 2 min; 250 mM NaCl, 50 mM Tris pH 7.5, 0.5 mM TCEP; steady-state fit Req = (Rmax*C)/(Kd+C); mean of three experiments; Figure 4B shows the responses at 10 μM. To be noted: both partners purified. On the technique in general: In SPR one partner is held on a chip, and binding of the other changes the refractive index at the surface.

Experiment [2] deals with T2, whirlin-NTR-PDZ1-Hp1 (aa residues 2-265) (mouse, UniProt Q80VW5-1 2-265).
T2 construct: extra 7 aa at the N-terminus of all recombinant proteins of the study; whirlin (long isoform, L-whirlin), residues 2-265: NTR (with HHD1), PDZ1 and hairpin Hp1; The methods call the 2-265 construct whirlin-NTR-PDZ1; also called NTR-PDZ1-Hp1 whirlin fragment; Nter-PDZ1-Hp1; source: E. coli BL21 (DE3) codonPlus-RIPL, purified (Glutathione Sepharose 4B, GST removed by TEV proteinase, SEC)
T2 sequence: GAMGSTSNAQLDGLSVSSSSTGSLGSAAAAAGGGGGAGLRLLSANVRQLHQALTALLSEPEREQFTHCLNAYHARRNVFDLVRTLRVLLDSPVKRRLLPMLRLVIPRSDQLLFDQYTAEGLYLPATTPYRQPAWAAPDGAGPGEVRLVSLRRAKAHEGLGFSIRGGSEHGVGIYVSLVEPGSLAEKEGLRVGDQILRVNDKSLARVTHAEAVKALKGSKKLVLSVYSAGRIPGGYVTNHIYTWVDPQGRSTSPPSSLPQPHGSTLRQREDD
Described as above. To be noted: both partners purified.

No end group written: not given here. *: point of attachment. Biotin = O=C1N[C@H]2[C@H](CS[C@H]2CCCCC(=O)*)N1; TTDS = trioxatridecan-succinamic acid spacer

B1: PCDH15-CD1 C-terminal peptide (biotin-TTDS-GIDVQPHSQSTSL) (peptide)
peptide: {Biotin-TTDS}-GIDVQPHSQSTSL
notes: C-terminal 13 aa of protocadherin-15 isoform CD1, including the PBM; source: synthetic peptide (Eurogentec); not shown: biotin, N-terminal, kept
Broadly, the Kd is the concentration at which binding is half-saturated. A high value points to weaker binding. With B1, the equilibrium dissociation constant (Kd) in experiment [1] was above 1000 µM; in experiment [2], 8.8 µM.

B2: PCDH15-CD2 C-terminal peptide (biotin-TTDS-GANSEQYNTAL) (peptide)
peptide: {Biotin-TTDS}-GANSEQYNTAL
notes: C-terminal 11 aa of protocadherin-15 isoform CD2, including the PBM; source: synthetic peptide (Eurogentec); not shown: biotin, N-terminal, kept
Turning to B2, the figures for the Kd in experiment [1] and in experiment [2] were above 1000 µM and 8.5 µM, respectively.

B3: PCDH15-CD3 C-terminal peptide (biotin-TTDS-MGPWNSLHIPMTKL) (peptide)
peptide: {Biotin-TTDS}-MGPWNSLHIPMTKL
notes: C-terminal 14 aa of protocadherin-15 isoform CD3, including the PBM; source: synthetic peptide (Eurogentec); not shown: biotin, N-terminal, kept
Regarding B3, the Kd in experiment [1] was above 1000 µM; in experiment [2] it was 4.2 µM.
